What was measured:
[1] = target: prdx3_human PRDX3 (UniProt P30048)
[2] = target: prdx3_human PRDX3 (UniProt P30048); remark: listed apart in the source

Chain of UniProt P30048 (P30048 whole entry): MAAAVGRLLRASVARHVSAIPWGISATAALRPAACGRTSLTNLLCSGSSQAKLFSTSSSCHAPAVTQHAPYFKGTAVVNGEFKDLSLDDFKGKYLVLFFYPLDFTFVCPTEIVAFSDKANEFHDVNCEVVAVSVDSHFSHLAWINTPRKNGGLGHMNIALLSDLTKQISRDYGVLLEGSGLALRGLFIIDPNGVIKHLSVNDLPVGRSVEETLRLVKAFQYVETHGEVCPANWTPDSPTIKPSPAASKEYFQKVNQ

effect of a mutation on the interaction [1] | effect of a mutation on the interaction [2] | Substance
increasing interaction | – | Leucine-rich repeat serine/threonine-protein kinase 2 (Homo sapiens), Q5S007 G2019S
– | disrupting interaction | Leucine-rich repeat serine/threonine-protein kinase 2 (Homo sapiens), Q5S007 G2019V;I2020F

Reference: IntAct's records for PubMed 21850687
